# System: T1, pT231-Pro tau peptide KVAVVR-(pT231)-(Pro)-PKSPS
# T1 sequence: KVAVVRTPPKSPS
substance,measurement,value
PP2A,"dephosphorylation of pT231-tau peptide, read with the conformation-specific antibodies","Trans, but not cis, pT231-tau peptide was readily dephosphorylated by PP2A in a time-dependent manner"
